# Results taken from CN116082499A.
# Legend:
# [1] = biological target: DENV抗原 (DENV阳性血清) (dengue virus (DENV), serotype not stated); test: sandwich ELISA, antibody at 6.25 ng/ml captured on goat anti-mouse IgG, DENV-positive serum, HRP-labelled DENV mAb
# [2] = biological target: DENV抗原 (DENV阳性血清) (dengue virus (DENV), serotype not stated); test: sandwich ELISA, antibody at 0 ng/ml (blank without antibody), goat anti-mouse IgG, DENV-positive serum, HRP-labelled DENV mAb
# [3] = biological target: DENV抗原 (DENV阳性血清) (dengue virus (DENV), serotype not stated); test: sandwich ELISA, antibody at 12.5 ng/ml captured on goat anti-mouse IgG, DENV-positive serum, HRP-labelled DENV mAb
# [4] = biological target: DENV抗原 (DENV阳性血清) (dengue virus (DENV), serotype not stated); test: sandwich ELISA, antibody at 1.5625 ng/ml captured on goat anti-mouse IgG, DENV-positive serum, HRP-labelled DENV mAb
# [5] = biological target: DENV-IV抗原(一种NS1蛋白，购自菲鹏) (dengue virus serotype 4 (DENV-IV)) (UniProt P09866)
# Sequence of UniProt P09866 (P09866 775-1126 limits assumed): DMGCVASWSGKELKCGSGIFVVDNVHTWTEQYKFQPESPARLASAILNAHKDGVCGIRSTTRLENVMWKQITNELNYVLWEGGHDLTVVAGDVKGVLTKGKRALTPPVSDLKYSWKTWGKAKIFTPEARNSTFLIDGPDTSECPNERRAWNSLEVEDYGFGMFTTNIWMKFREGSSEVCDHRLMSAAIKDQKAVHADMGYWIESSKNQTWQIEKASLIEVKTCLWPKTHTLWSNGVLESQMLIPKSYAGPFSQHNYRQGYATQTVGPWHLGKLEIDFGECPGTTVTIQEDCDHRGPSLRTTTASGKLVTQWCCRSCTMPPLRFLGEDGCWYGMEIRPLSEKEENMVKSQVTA
# [6] = biological target: DENV抗原 (DENV阳性血清) (dengue virus (DENV), serotype not stated); test: sandwich ELISA, antibody at 3.125 ng/ml captured on goat anti-mouse IgG, DENV-positive serum, HRP-labelled DENV mAb
# [7] = biological target: DENV抗原 (DENV阳性血清) (dengue virus (DENV), serotype not stated); test: sandwich ELISA, antibody at 0.78125 ng/ml captured on goat anti-mouse IgG, DENV-positive serum, HRP-labelled DENV mAb
substance,measurement,setting,value
对照抗体 (antibody),"OD (450nm, 参考630nm)",[1],0.996 OD
same,"OD (450nm, 参考630nm)",[2],0.045 OD
same,"OD (450nm, 参考630nm)",[3],1.54 OD
same,"OD (450nm, 参考630nm)",[4],0.48 OD
same,Kd,[5],811 nM
same,koff,[5],0.0019 s⁻¹
same,kon,[5],2340 M⁻¹ s⁻¹
same,"OD (450nm, 参考630nm)",[6],0.692 OD
same,"OD (450nm, 参考630nm)",[7],0.317 OD
